In publication PMC8600398 one finds binding and Kd data, which are given here for two substances.

Series [1] has as its target T1, 6His-CRP (cAMP receptor protein) (Escherichia coli (K-12 MG1655?)) (UniProt P0ACJ8).
T1 sequence: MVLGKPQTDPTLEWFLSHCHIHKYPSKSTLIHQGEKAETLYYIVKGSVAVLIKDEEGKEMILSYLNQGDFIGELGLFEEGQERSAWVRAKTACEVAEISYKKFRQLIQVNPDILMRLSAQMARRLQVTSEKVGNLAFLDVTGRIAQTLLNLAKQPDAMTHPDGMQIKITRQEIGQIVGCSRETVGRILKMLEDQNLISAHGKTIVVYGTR
In words: EMSA. As to conditions: 10 mM Tris-HCl pH 7.5, 50 mM NaCl, 5 mM MgSO4, 1 mM DTT, 1 mg/ml BSA, 200 uM cAMP, 10% glycerol, 12 ug/ml poly(dI-dC), 5 nM DNA, 37 C 15 min; 5% PAGE 0.25X TBE ….

Series [2] has as its system 6His-CRP (cAMP receptor protein) (Escherichia coli (K-12 MG1655?)). In words: EMSA. As to conditions: 10 mM Tris-HCl pH 7.5, 50 mM NaCl, 5 mM MgSO4, 1 mM DTT, 1 mg/ml BSA, 200 uM cAMP, 10% glycerol, 12 ug/ml poly(dI-dC), 5 nM DNA, 37 C 15 min; 5% PAGE 0.25X TBE …. On the technique in general: In EMSA bound probe runs differently from free probe, usually more slowly.

On to “GCCTACCGCATCCGCTTGCGTATCGACGGCGTATTGCATCCTTTACCGGATGTTTCACCGGATGCCGGAGTCGCATTAACCGCCAGATTAAAAGTGCTGGGAAACCTGG (double strand)”, for which, in series [1], the binding entry is reported as “no binding”.
As to ytfK promoter region -515/+3, in series [2], the Kd worked out at 25 nM.

By Kd is commonly meant the free concentration of one partner at which half of the binding sites on the other are occupied at equilibrium, for simple one-to-one binding. A low value points to a tighter complex.
